This assay addresses GLR3.3-3Flag (Arabidopsis thaliana) (UniProt Q9C8E7). The assay is described as follows: IP-MS, anti-Flag IP of GLR3.3-3Flag from leaves of transgenic plants; co-enrichment, may be indirect.
Chain of GLR3.3-3Flag (Arabidopsis thaliana) (Q9C8E7 24-933): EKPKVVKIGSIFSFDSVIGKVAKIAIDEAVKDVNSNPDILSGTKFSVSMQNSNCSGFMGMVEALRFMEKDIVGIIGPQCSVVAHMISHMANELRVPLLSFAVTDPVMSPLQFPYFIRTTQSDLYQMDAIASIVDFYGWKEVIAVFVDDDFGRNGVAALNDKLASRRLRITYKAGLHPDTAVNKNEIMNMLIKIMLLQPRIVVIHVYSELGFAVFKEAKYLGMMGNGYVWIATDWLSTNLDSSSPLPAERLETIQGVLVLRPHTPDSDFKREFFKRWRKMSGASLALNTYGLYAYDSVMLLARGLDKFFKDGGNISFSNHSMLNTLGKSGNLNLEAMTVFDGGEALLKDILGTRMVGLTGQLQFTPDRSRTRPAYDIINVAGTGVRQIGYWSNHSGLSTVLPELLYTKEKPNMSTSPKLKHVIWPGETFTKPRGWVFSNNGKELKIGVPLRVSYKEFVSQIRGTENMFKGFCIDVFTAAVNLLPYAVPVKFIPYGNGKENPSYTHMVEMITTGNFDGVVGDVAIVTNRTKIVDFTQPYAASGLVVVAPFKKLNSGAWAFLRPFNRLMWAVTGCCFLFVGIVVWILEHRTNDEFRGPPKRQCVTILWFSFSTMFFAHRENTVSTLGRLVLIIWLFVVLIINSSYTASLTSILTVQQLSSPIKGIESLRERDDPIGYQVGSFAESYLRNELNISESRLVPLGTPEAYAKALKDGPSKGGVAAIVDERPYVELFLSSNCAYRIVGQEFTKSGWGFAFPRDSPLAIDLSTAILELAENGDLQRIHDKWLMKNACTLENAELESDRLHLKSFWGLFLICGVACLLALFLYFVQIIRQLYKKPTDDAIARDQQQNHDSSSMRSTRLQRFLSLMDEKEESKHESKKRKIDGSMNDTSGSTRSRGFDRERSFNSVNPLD
Turning to “NIT1 (nitrilase isoenzyme family) (from UniProt P32961 2-346)”, the unique peptide number (unique peptides) is 17. “PIP2; 1 (plasma membrane intrinsic protein 2A) (from UniProt P43286 1-287)” came in with a unique peptide number (unique peptides) of 7. In turn, “TKL1 (transketolase involved in carbon fixation) (from UniProt Q8RWV0 67-741) (enzyme)” registered a unique peptide number (unique peptides) of 17. Next, “TPP2 (tripeptidyl peptidase II) (from UniProt F4JVN6 1-1380) (enzyme)”: 42; “TGG1 (member of glycoside hydrolase family 1) (from UniProt P37702 20-541) (enzyme)”: 6. In turn, “GLR3.2 (from UniProt Q93YT1 23-912) (receptor)” returned a unique peptide number (unique peptides) of 4. For the substance “CAM3 (calmodulin) (from UniProt P0DH98 1-149)”, the unique peptide number (unique peptides) amounted to 7. With “PWD (chloroplastidic phosphoglucan, water dikinase) (from UniProt Q6ZY51 55-1196) (enzyme)”, the unique peptide number (unique peptides) stood at 43.

As for “CLPC1 (Clp protease ATP-binding subunit homologue) (from UniProt Q9FI56 39-929)”, the unique peptide number (unique peptides) came out at 21. In turn, “CAM5 (calmodulin) (from UniProt Q682T9 1-149)” returned a unique peptide number (unique peptides) of 7. “TIC110 (translocon at the chloroplast inner envelope) (from UniProt Q8LPR9 52-1016)” displayed a unique peptide number (unique peptides) of 16. “coatomer, alpha subunit (from UniProt Q9SJT9 1-1218)” yielded a unique peptide number (unique peptides) of 10. “CAT3 (catalase) (from UniProt Q42547 1-492) (enzyme)” came in with a unique peptide number (unique peptides) of 6. The result for “PIP2; 7 (plasma membrane intrinsic protein 3) (from UniProt P93004 1-280)” reads 7. In turn, “AHA1 (plasma membrane proton ATPase 1) (from UniProt P20649 2-949) (enzyme)” showed a unique peptide number (unique peptides) of 23. With “AHA2 (plasma membrane proton ATPase 2) (from UniProt P19456 2-948) (enzyme)”, the unique peptide number (unique peptides) was 17. Next, “GLDP1 (glycine decarboxylase P-protein 1) (from UniProt Q94B78 68-1037) (enzyme)”: 15; “GLU1 (glutamate synthase 1) (from UniProt Q9ZNZ7 106-1622) (enzyme)”: 57. Regarding “AMY3 (plastid-localized α-amylase) (from UniProt Q94A41 56-887) (enzyme)”, the unique peptide number (unique peptides) is 8.

On to “CAT2 (catalase) (from UniProt P25819 1-492) (enzyme)”, for which the unique peptide number (unique peptides) is 6. In turn, “GLR3.5 (from UniProt Q9SW97 30-953) (receptor)” returned a unique peptide number (unique peptides) of 9. “ATMS1 (cobalamin-independent synthase family protein) (from UniProt O50008 1-765) (enzyme)” registered a unique peptide number (unique peptides) of 14.

“KEA1 (K^+ efflux antiporter 1) (from UniProt Q9ZTZ7 50-1193)” gave a unique peptide number (unique peptides) of 5. For “PIP2; 4 (plasma membrane intrinsic protein 2; 4) (from UniProt Q9FF53 1-291)”, the unique peptide number (unique peptides) is 5. Turning to “LOS1 (translation elongation factor 2-like protein) (from UniProt Q9ASR1 1-843)”, the unique peptide number (unique peptides) came to 21. The result for “CAM6 (calmodulin) (from UniProt Q03509 1-149)” reads 4; that for “VEN3 (carbamoyl phosphate synthetase (CPS) large subunit) (from UniProt Q42601 63-1187) (enzyme)”, 12; that for “HSP70-1 (member of heat shock protein 70 family) (from UniProt P22953 2-651)”, 15.

The substance “tRNA synthetase class I (I, L, M and V) family protein (from UniProt F4JLM5 1-1190) (enzyme)” returned a unique peptide number (unique peptides) of 62.

In turn, “GLDP2 (P-subunit of glycine decarboxylase) (from UniProt O80988 73-1044) (enzyme)” yielded a unique peptide number (unique peptides) of 11.

Substance “PPC2 (phosphoenolpyruvate carboxylase protein 2) (from UniProt Q5GM68 1-963) (enzyme)” came in with a unique peptide number (unique peptides) of 12. Turning to “GLR2.6 (from UniProt Q9LFN8 32-967) (receptor)”, the unique peptide number (unique peptides) worked out at 12. Regarding “HSP70-2 (member of heat shock protein 70 family) (from UniProt P22954 1-653)”, the unique peptide number (unique peptides) was found to be 12.

For the substance “GAPB (glyceraldehyde-3-phosphate dehydrogenase B subunit) (from UniProt P25857 81-447) (enzyme)”, the unique peptide number (unique peptides) is 4. Consider “GLU2 (glutamate synthase 2) (from UniProt Q9T0P4 108-1629) (enzyme)”, for which the unique peptide number (unique peptides) was 13. The substance “UBA1 (ubiquitin-activating enzyme (E1)) (from UniProt P93028 1-1080)” displayed a unique peptide number (unique peptides) of 7. Take “LOX2 (chloroplast lipoxygenase 2) (from UniProt P38418 57-896) (enzyme)”: the unique peptide number (unique peptides) was 9. The result for “EDD1 (glycine-tRNA ligase) (from UniProt Q8L785 51-1067) (enzyme)” reads 4; that for “CaM7 (calmodulin 7) (from UniProt P59220 1-149)”, 11; that for “EIF3A (a subunit of eukaryotic initiation factor 3 (eIF3)) (from UniProt Q9LD55 1-987)”, 4. For “RCA (rubisco activase) (from UniProt P10896 59-474) (enzyme)”, the unique peptide number (unique peptides) is 12. Next, “FTIP1 (multiple C2 domain and transmembrane region protein 1) (from UniProt Q9FL59 1-794)”: 21.

The record behind these values is patent US20250270584A1, “Gene editing to provide insect resistance in crops” (The Regents of the University of California, priority 2022, published 2025).
